The record followed here is the supplement of paper PMC11316812.

One data set deals with MCF7. Nature of the data set: percentage of EdU-negative (G0-arrested) nuclei per well, 72 h; higher = more G0 arrest. As to conditions: reference: sequence is the full UniProt precursor, the tested protein was the secreted form or ectodomain.
The test system of another data set is hTERT-HMEC. The data set is described as above. The following applies: reference: sequence is the full UniProt precursor, the tested protein was the secreted form or ectodomain.
The mark [1] stands for this setting: protein concentration 0.01725 µM.
Setting [2] is: protein concentration 0.1725 µM.
Setting [3] is: protein concentration 0.00975 µM.
Where [4] appears, read: protein concentration 0.0975 µM.
Where [5] appears, read: protein concentration 0.0240725 µM.
Where [6] appears, read: protein concentration 0.240725 µM.
Where [7] appears, read: protein concentration 0.00742857 µM.
[8] abbreviates: protein concentration 0.0742857 µM.
[9] abbreviates: protein concentration 0.0225 µM.
The mark [10] stands for this setting: protein concentration 0.01422 µM.
Where [11] appears, read: protein concentration 0.1422 µM.

± gives the standard deviation of the averaged measurements.
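Also: secreted proteins added to cultured cells, EdU pulse at the end, nuclei found by Hoechst imaging, EdU status from nuclear versus surrounding ring intensity ratio, PBS as neutral control.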

Regarding “MGAASGRRGPGLLLPLPLLLLLPPQPALALDPGLQPGNFSADEAGAQLFAQSYNSSAEQVLFQSVAASWAHDTNITAENARRQEEAALLSQEFAEAWGQKAKELYEPIWQNFTDPQLRRIIGAVRTLGSANLPLAKRQQYNALLSNMSRIYSTAKVCLPNKTATCWSLDPDLTNILASSRSYAMLLFAWEGWHNAAGIPLKPLYEDFTALSNEAYKQDGFTDTGAYWRSWYNSPTFEDDLEHLYQQLEPLYLNLHAFVRRALHRRYGDRYINLRGPIPAHLLGDMWAQSWENIYDMVVPFPDKPNLDVTSTMLQQGWNATHMFRVAEEFFTSLELSPMPPEFWEGSMLEKPADGREVVCHASAWDFYNRKDFRIKQCTRVTMDQLSTVHHEMGHIQYYLQYKDLPVSLRRGANPGFHEAIGDVLALSVSTPEHLHKIGLLDRVTNDTESDINYLLKMALEKIAFLPFGYLVDQWRWGVFSGRTPPSRYNFDWWYLRTKYQGICPPVTRNETHFDAGAKFHVPNVTPYIRYFVSFVLQFQFHEALCKEAGYEGPLHQCDIYRSTKAGAKLRKVLQAGSSRPWQEVLKDMVGLDALDAQPLLKYFQPVTQWLQEQNQQNGEVLGWPEYQWHPPLPDNYPEGIDLVTDEAEASKFVEEYDRTSQVVWNEYAEANWNYNTNITTETSKILLQKNMQIANHTLKYGTQARKFDVNQLQNTTIKRIIKKVQDLERAALPAQELEEYNKILLDMETTYSVATVCHPNGSCLQLEPDLTNVMATSRKYEDLLWAWEGWRDKAGRAILQFYPKYVELINQAARLNGYVDAGDSWRSMYETPSLEQDLERLFQELQPLYLNLHAYVRRALHRHYGAQHINLEGPIPAHLLGNMWAQTWSNIYDLVVPFPSAPSMDTTEAMLKQGWTPRRMFKEADDFFTSLGLLPVPPEFWNKSMLEKPTDGREVVCHASAWDFYNGKDFRIKQCTTVNLEDLVVAHHEMGHIQYFMQYKDLPVALREGANPGFHEAIGDVLALSVSTPKHLHSLNLLSSEGGSDEHDINFLMKMALDKIAFIPFSYLVDQWRWRVFDGSITKENYNQEWWSLRLKYQGLCPPVPRTQGDFDPGAKFHIPSSVPYIRYFVSFIIQFQFHEALCQAAGHTGPLHKCDIYQSKEAGQRLATAMKLGFSRPWPEAMQLITGQPNMSASAMLSYFKPLLDWLRTENELHGEKLGWPQYNWTPNSARSEGPLPDSGRVSFLGLDLDAQQARVGQWLLLFLGIALLVATLGLSQRLFSIRHRSLHRHSHGPQFGSEVELRHS”, the “percentage of EdU-negative” value in the data set with MCF7 (setting [1]) was 27.2 ± 0.68%; in the data set on MCF7 (setting [2]), 28.2 ± 4.2%; in the data set with hTERT-HMEC (setting [1]) it was 4.7 ± 0.63%; in the data set with hTERT-HMEC (setting [2]), 5.68 ± 0.65%.
“MGADGETVVLKNMLIGINLILLGSMIKPSECQLEVTTERVQRQSVEEEGGIANYNTSSKEQPVVFNHVYNINVPLDNLCSSGLEASAEQEVSAEDETLAEYMGQTSDHESQVTFTHRINFPKKACPCASSAQVLQELLSRIEMLEREVSVLRDQCNANCCQESAATGQLDYIPHCSGHGNFSFESCGCICNEGWFGKNCSEPYCPLGCSSRGVCVDGQCICDSEYSGDDCSELRCPTDCSSRGLCVDGECVCEEPYTGEDCRELRCPGDCSGKGRCANGTCLCEEGYVGEDCGQRQCLNACSGRGQCEEGLCVCEEGYQGPDCSAVAPPEDLRVAGISDRSIELEWDGPMAVTEYVISYQPTALGGLQLQQRVPGDWSGVTITELEPGLTYNISVYAVISNILSLPITAKVATHLSTPQGLQFKTITETTVEVQWEPFSFSFDGWEISFIPKNNEGGVIAQVPSDVTSFNQTGLKPGEEYIVNVVALKEQARSPPTSASVSTVIDGPTQILVRDVSDTVAFVEWIPPRAKVDFILLKYGLVGGEGGRTTFRLQPPLSQYSVQALRPGSRYEVSVSAVRGTNESDSATTQFTTEIDAPKNLRVGSRTATSLDLEWDNSEAEVQEYKVVYSTLAGEQYHEVLVPRGIGPTTRATLTDLVPGTEYGVGISAVMNSQQSVPATMNARTELDSPRDLMVTASSETSISLIWTKASGPIDHYRITFTPSSGIASEVTVPKDRTSYTLTDLEPGAEYIISVTAERGRQQSLESTVDAFTGFRPISHLHFSHVTSSSVNITWSDPSPPADRLILNYSPRDEEEEMMEVSLDATKRHAVLMGLQPATEYIVNLVAVHGTVTSEPIVGSITTGIDPPKDITISNVTKDSVMVSWSPPVASFDYYRVSYRPTQVGRLDSSVVPNTVTEFTITRLNPATEYEISLNSVRGREESERICTLVHTAMDNPVDLIATNITPTEALLQWKAPVGEVENYVIVLTHFAVAGETILVDGVSEEFRLVDLLPSTHYTATMYATNGPLTSGTISTNFSTLLDPPANLTASEVTRQSALISWQPPRAEIENYVLTYKSTDGSRKELIVDAEDTWIRLEGLLENTDYTVLLQAAQDTTWSSITSTAFTTGGRVFPHPQDCAQHLMNGDTLSGVYPIFLNGELSQKLQVYCDMTTDGGGWIVFQRRQNGQTDFFRKWADYRVGFGNVEDEFWLGLDNIHRITSQGRYELRVDMRDGQEAAFASYDRFSVEDSRNLYKLRIGSYNGTAGDSLSYHQGRPFSTEDRDNDVAVTNCAMSYKGAWWYKNCHRTNLNGKYGESRHSQGINWYHWKGHEFSIPFVEMKMRPYNHRLMAGRKRQSLQF”: the “percentage of EdU-negative” value was 26.36 ± 0.12% in the data set on MCF7 (setting [3]), 26.4 ± 0.85% in the data set on MCF7 (setting [4]), 5.09 ± 0.52% in the data set with hTERT-HMEC (setting [3]) and 6.03 ± 1.7% in the data set with hTERT-HMEC (setting [4]).
With “MGAGATGRAMDGPRLLLLLLLGVSLGGAKEACPTGLYTHSGECCKACNLGEGVAQPCGANQTVCEPCLDSVTFSDVVSATEPCKPCTECVGLQSMSAPCVEADDAVCRCAYGYYQDETTGRCEACRVCEAGSGLVFSCQDKQNTVCEECPDGTYSDEANHVDPCLPCTVCEDTERQLRECTRWADAECEEIPGRWITRSTPPEGSDSTAPSTQEPEAPPEQDLIASTVAGVVTTVMGSSQPVVTRGTTDNLIPVYCSILAAVVVGLVAYIAFKRWNSCKQNKQGANSRPVNQTPPPEGEKLHSDSGISVDSQSLHDQQPHTQTASGQALKGDGGLYSSLPPAKREEVEKLLNGSAGDTWRHLAGELGYQPEHIDSFTHEACPVRALLASWATQDSATLDALLAALRRIQRADLVESLCSESTATSPV”, the “percentage of EdU-negative” value with MCF7 (setting [5]) worked out at 24.6 ± 0.37%; in the data set on MCF7 (setting [6]) it was 23 ± 1.5%; in the data set with hTERT-HMEC (setting [5]), 4.77 ± 0.43%; in the data set on hTERT-HMEC (setting [6]) it was 4.6 ± 0.64%.
As for “MGALARALPSILLALLLTSTPEALGANPGLVARITDKGLQYAAQEGLLALQSELLRITLPDFTGDLRIPHVGRGRYEFHSLNIHSCELLHSALRPVPGQGLSLSISDSSIRVQGRWKVRKSFFKLQGSFDVSVKGISISVNLLLGSESSGRPTVTASSCSSDIADVEVDMSGDLGWLLNLFHNQIESKFQKVLESRICEMIQKSVSSDLQPYLQTLPVTTEIDSFADIDYSLVEAPRATAQMLEVMFKGEIFHRNHRSPVTLLAAVMSLPEEHNKMVYFAISDYVFNTASLVYHEEGYLNFSITDDMIPPDSNIRLTTKSFRPFVPRLARLYPNMNLELQGSVPSAPLLNFSPGNLSVDPYMEIDAFVLLPSSSKEPVFRLSVATNVSATLTFNTSKITGFLKPGKVKVELKESKVGLFNAELLEALLNYYILNTFYPKFNDKLAEGFPLPLLKRVQLYDLGLQIHKDFLFLGANVQYMRV”, the “percentage of EdU-negative” value in the data set with MCF7 (setting [7]) is 23.1 ± 3.5%; in the data set on MCF7 (setting [8]), 26.4 ± 0.82%; with hTERT-HMEC (setting [7]), 5.11 ± 0.45%; in the data set on hTERT-HMEC (setting [8]) it was 7.684 ± 0.069%.
Take “MGALRPTLLPPSLPLLLLLMLGMGCWAREVLVPEGPLYRVAGTAVSISCNVTGYEGPAQQNFEWFLYRPEAPDTALGIVSTKDTQFSYAVFKSRVVAGEVQVQRLQGDAVVLKIARLQAQDAGIYECHTPSTDTRYLGSYSGKVELRVLPDVLQVSAAPPGPRGRQAPTSPPRMTVHEGQELALGCLARTSTQKHTHLAVSFGRSVPEAPVGRSTLQEVVGIRSDLAVEAGAPYAERLAAGELRLGKEGTDRYRMVVGGAQAGDAGTYHCTAAEWIQDPDGSWAQIAEKRAVLAHVDVQTLSSQLAVTVGPGERRIGPGEPLELLCNVSGALPPAGRHAAYSVGWEMAPAGAPGPGRLVAQLDTEGVGSLGPGYEGRHIAMEKVASRTYRLRLEAARPGDAGTYRCLAKAYVRGSGTRLREAASARSRPLPVHVREEGVVLEAVAWLAGGTVYRGETASLLCNISVRGGPPGLRLAASWWVERPEDGELSSVPAQLVGGVGQDGVAELGVRPGGGPVSVELVGPRSHRLRLHSLGPEDEGVYHCAPSAWVQHADYSWYQAGSARSGPVTVYPYMHALDTLFVPLLVGTGVALVTGATVLGTITCCFMKRLRKR [Q969P0]”: the “percentage of EdU-negative” value in the data set with MCF7 (setting [9]) is 25 ± 1.3%; with MCF7 (protein concentration 0.225 µM), 26.5 ± 0.91%; in the data set on hTERT-HMEC (setting [9]) it was 5.09 ± 0.17%; with hTERT-HMEC (protein concentration 0.225 µM) it was 5.05 ± 0.19%.
Turning to “MGAPACALALCVAVAIVAGASSESLGTEQRVVGRAAEVPGPEPGQQEQLVFGSGDAVELSCPPPGGGPMGPTVWVKDGTGLVPSERVLVGPQRLQVLNASHEDSGAYSCRQRLTQRVLCHFSVRVTDAPSSGDDEDGEDEAEDTGVDTGAPYWTRPERMDKKLLAVPAANTVRFRCPAAGNPTPSISWLKNGREFRGEHRIGGIKLRHQQWSLVMESVVPSDRGNYTCVVENKFGSIRQTYTLDVLERSPHRPILQAGLPANQTAVLGSDVEFHCKVYSDAQPHIQWLKHVEVNGSKVGPDGTPYVTVLKTAGANTTDKELEVLSLHNVTFEDAGEYTCLAGNSIGFSHHSAWLVVLPAEEELVEADEAGSVYAGILSYGVGFFLFILVVAAVTLCRLRSPPKKGLGSPTVHKISRFPLKRQVSLESNASMSSNTPLVRIARLSSGEGPTLANVSELELPADPKWELSRARLTLGKPLGEGCFGQVVMAEAIGIDKDRAAKPVTVAVKMLKDDATDKDLSDLVSEMEMMKMIGKHKNIINLLGACTQGGPLYVLVEYAAKGNLREFLRARRPPGLDYSFDTCKPPEEQLTFKDLVSCAYQVARGMEYLASQKCIHRDLAARNVLVTEDNVMKIADFGLARDVHNLDYYKKTTNGRLPVKWMAPEALFDRVYTHQSDVWSFGVLLWEIFTLGGSPYPGIPVEELFKLLKEGHRMDKPANCTHDLYMIMRECWHAAPSQRPTFKQLVEDLDRVLTVTSTDEYLDLSAPFEQYSPGGQDTPSSSSSGDDSVFAHDLLPPAPPSSGGSRT”, the “percentage of EdU-negative” value with MCF7 (setting [10]) was 27.1 ± 3.1%; in the data set on MCF7 (setting [11]), 25.5 ± 3.1%; with hTERT-HMEC (setting [10]), 5.58 ± 0.063%; in the data set on hTERT-HMEC (setting [11]), 5.64 ± 0.3%.
